Data reported in the supplement of paper PMC9170038.

Tested on: K4 kissing-loop RNA reporter
Test: apparent KD of K4 kissing-loop reporter; higher = weaker reporter binding
Settings: Eterna round: R107
Protocol: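 RNA-MaP round R107: designed RNA switches with theophylline, tryptophan, arginine or FMN aptamers are transcribed on-chip within common flanks. They are titrated with a labelled K4 kissing-loop RNA reporter in RNA-MaP buffer (100 mM Tris pH 7.5, 80 mM KCl, 4 mM MgCl2), without ligand or with the indicated ligand. Median apparent KD per design.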

[1] = input ligand: theophylline 20 uM
[2] = input ligand: tryptophan 2.4 mM
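Further: bound reporter read as fluorescence of individual clusters on recovered sequencing chips by microscopy, with normalized cluster intensities fitted with a binding model.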

| Sequence | apparent KD of K4 kissing-loop reporter (input ligand: FMN 200 uM) [nM] | apparent KD of K4 kissing-loop reporter (input ligand: arginine 13.2 mM) [nM] | apparent KD of K4 kissing-loop reporter (input ligand: none) [nM] | apparent KD of K4 kissing-loop reporter [1] [nM] | apparent KD of K4 kissing-loop reporter [2] [nM] |
| --- | --- | --- | --- | --- | --- |
| GGAGGGAUCUCGGCCGCCACUCAUAAGAAAUGGGCCUCAGAAAUAUAGUGAUGUUAUAUAAAGAAGAGGACCGGGAGAAAGAAGG [ExTryptoB.D] | 197 | 128 | 129 | 203 | 131 |
| UGGACGUUAUACAAAUAGUAUAACUGGGAUACCAGUGACGAAAGUCACCCUUGGCAGCUCAACUGCCAGUGAUGUUGGUAGUCCA [Astros-Eli-mod#4] | 307 | 158 | 172 | 239 | 145 |
| AAUGCAUAGUGAAGGAGCGCGAUAAGCAGUGAUGUUGCUUAGCUAUUAUUCAUUAUUUUAACGCAGGUAGGUCGCACUUUGCAUA [JR_ExcArginiB_Sub015] | 131 | 127 | 128 | 151 | 128 |
| AGUGAUGUGGGAAGGAGCGCUACAUGACUUCAGUGAUGUUGAAGUGAUGAUUUAGUGAUGUAGCAGGUAGGUCGCCUAGAUGUUA [KL-XARG-B8] | 98.3 | 41.2 | 77.2 | 77.5 | 62.5 |
| GGAUCCUAGGCGGCCGCCACUCCAUCGUACCGAAAGGUAUGAUACCGAGUGAUGUUCGGUUGGAGGAGGACCGGGCCUAGGAUCC [#2 Exclusion - Tryptophan B Attempt #3 (HarryS)] | 147 | 112 | 124 | 127 | 112 |
| CGAGUGAUGUUCGUUCGUUUAUUUCGUUGACAGGAUAUGCGGAAACGCAGAAGGGUCACCUUUGAGUUAACGGAAUUAACGUUAU [Ex FMN A 28] | 561 | 452 | 544 | 490 | 456 |
| AAGCCCAGUGAUGUUGGAAGCGCGUACGAUACCAGCGAAUCGGAACGCCCUUGGCAGCGUACAGAGUUGGCGGAAGAUAGGACAG [theeternabot_sameState_KL_Theo_A_14] | 548 | 507 | 643 | 637 | 527 |
| UGUGUUGUUGUGAUGUUUGGUGUUGUAGGGCAGGAUAUCGUAGAGGCGAGAAGGGCUUUUGUGCGGUAUGAGUGAUGUUUGUAGG [svvsmullin] | 119 | 89.3 | 160 | 134 | 122 |
| CUUGUACAAGUGAUGUUUGUUAUAUCCGAAGGAGCGUCGUAAUAGACAGGUAGGUCGCGGAGUUAGCUGGUUUUUUUAACAGCUA [JR_Nu_SSArginiA_Sub030] | 621 | 421 | 679 | 472 | 584 |
| AGUGAUGUUGAGUGAUGUUAGUGAAGUGAUCGAGGACCGGUACGGCCGCCACUCGAGUGAUGAGUGAGUGAUGUUUGUUUAGUGA [hhbmullin] | 168 | 74.4 | 113 | 120 | 78.2 |
| GUGGAAAUCAGAAGGAGCGUCUACAAUAAGAAAACCAGUGAUGUUGGUUUUAUUUAAUGAAGACAGGUAGGUCGCUGAAUUUCUA [Same State Arginie B GF 20] | 138 | 106 | 118 | 105 | 118 |
| CCGAAGAACCAGUGAUGUUGGUUGACUAGACAGGAUAUGAGCAACAUCAGAAGGGUCUGGCUUCGGGAGUGGGUCGCGCUGACCU [Geeredin] | 276 | 136 | 845 | 371 | 206 |
| AAUUUUAAUAAUAAAUAAUAAAUAAAUGAUACCAGUAUUUUUUUUUACCCUUGGCAGCAUAUAUAAGGGCAGUGAUGUUGCCAAA [Same State - Theophylline A] | 145 | 85.2 | 119 | 111 | 131 |
| ACAAGGGAUCCAGAUACCAGCACUCAAGGAGCUAUAUCAGCGAGUGAUGUUCGUUCAUAGUGCCCUUGGCAGCUGUACUUCCUUG [Essoengeis] | 115 | 107 | 123 | 114 | 110 |
| UGCGUCGGUUCAGAUACCAGCCAAUUAGAGUCGAGUGAUGUUCGACAUUGAACGUCCAAAGGCCCUUGGCAGCUGGAUUGAGGAU [Same State Theophylline B GF 21] | 211 | 104 | 114 | 189 | 87.3 |
| UCAAGAGAACUUAAAUUUGAUCAACGCUCGCGAGGACCGGUACGGCCGCCACUCGACCGUUAGUGCCUCAUCCAGUGAUGUUGGG [theeternabot_sameState_KL_Trp_A_6] | 537 | 394 | 500 | 508 | 476 |
| AGAACUGUCUGAGAUACCAGCCAAGGAGUGAUGUUCCGGCUCGACGAAACGUCGAGCAAUGGCCCUUGGCAGCUCAGACAGUUCA [Omei KL Theo B SS A v3] | 387 | 80.9 | 182 | 398 | 242 |
| CCGCUGUAGUGCAUUAAGUGAUGUUUAGUGCAGGAUAUCUGGAAACAGAGAAGGGCACGUACUCGACGAGGCCAAUACAGCGGUU | 319 | 290 | 335 | 310 | 358 |
| GGUAGCAUGGCGGCCGCCACUUCAAGUGGAGUGAUGUUCCGCGGCAUCGCGAAAGCGAUGCCUGGAAGGACCGGGCCAUGCUACC | 1090 | 858 | 924 | 797 | 306 |
| CGCAGUGAUGUUGCGAAUAUAAUGCAUUCAGAGGAUAUUCGUUUGGGAAGAAGGCUGAAUCGUUCUUCGAGUGAUGUUCGAGGAA [Same State FMN A GF 17] | 141 | 133 | 154 | 136 | 132 |
| GAUGGCAUGCGAGGAUAUUGUACGGAGUGAUGUUCCCAUUAUCCAGGUAUUCGAUUGACGAGUAUCCAAGAAGGCGCAUGCCAUC | 248 | 121 | 136 | 115 | 138 |
| AUUAAUAACUGAGGAUAUCGAAAUUAUGUAGUGAUGUUACUGUAAAUUCAAAUUUUCAUUUCUUAACGAGAAGGCAGAAUAAUUA [JR_ExcFMNB_Sub012] | 173 | 185 | 115 | 200 | 86.8 |
